The record followed here is publication PMC11704961.

What all share (assay): EMSA
For orientation: Mobility shift assays separate free from complexed probe on a gel.

Data set [1] concerns the target T1, SRF (His-SRF);Elk1 (GST-His-Elk1) (human;human, UniProt P11831;P19419 1-508;1-428, |).
T1 sequence 1: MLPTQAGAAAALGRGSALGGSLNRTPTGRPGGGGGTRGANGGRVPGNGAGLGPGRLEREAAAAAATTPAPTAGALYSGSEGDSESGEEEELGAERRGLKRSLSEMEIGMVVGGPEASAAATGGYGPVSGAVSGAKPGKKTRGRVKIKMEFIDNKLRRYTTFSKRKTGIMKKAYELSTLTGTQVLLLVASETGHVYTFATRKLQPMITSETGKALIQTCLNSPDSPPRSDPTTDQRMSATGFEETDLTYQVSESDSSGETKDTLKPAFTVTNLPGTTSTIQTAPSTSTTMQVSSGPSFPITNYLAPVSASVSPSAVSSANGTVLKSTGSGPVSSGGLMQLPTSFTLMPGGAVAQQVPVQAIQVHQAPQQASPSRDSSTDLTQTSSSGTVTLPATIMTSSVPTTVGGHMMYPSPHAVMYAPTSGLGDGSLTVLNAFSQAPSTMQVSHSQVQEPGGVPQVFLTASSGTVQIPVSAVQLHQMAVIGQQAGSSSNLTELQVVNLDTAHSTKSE
T1 sequence 2: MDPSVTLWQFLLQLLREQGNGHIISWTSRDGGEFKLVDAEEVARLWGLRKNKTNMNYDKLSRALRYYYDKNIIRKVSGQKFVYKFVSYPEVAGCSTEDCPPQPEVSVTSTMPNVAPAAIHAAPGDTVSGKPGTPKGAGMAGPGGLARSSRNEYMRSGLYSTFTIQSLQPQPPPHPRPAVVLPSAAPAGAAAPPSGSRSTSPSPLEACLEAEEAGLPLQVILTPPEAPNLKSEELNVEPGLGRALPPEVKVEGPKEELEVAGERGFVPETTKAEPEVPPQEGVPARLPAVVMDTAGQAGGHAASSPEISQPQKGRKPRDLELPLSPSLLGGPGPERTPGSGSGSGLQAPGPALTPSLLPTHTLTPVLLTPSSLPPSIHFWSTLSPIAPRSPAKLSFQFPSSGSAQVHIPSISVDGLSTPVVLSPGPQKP

The target of the next data set is T2, SRF (His-SRF) (human, UniProt P11831 1-508).
T2 sequence: T1 sequence 1

Another data set addresses IPMK (human, UniProt Q8NFU5 1-416).

Sequence of IPMK (Q8NFU5 whole entry): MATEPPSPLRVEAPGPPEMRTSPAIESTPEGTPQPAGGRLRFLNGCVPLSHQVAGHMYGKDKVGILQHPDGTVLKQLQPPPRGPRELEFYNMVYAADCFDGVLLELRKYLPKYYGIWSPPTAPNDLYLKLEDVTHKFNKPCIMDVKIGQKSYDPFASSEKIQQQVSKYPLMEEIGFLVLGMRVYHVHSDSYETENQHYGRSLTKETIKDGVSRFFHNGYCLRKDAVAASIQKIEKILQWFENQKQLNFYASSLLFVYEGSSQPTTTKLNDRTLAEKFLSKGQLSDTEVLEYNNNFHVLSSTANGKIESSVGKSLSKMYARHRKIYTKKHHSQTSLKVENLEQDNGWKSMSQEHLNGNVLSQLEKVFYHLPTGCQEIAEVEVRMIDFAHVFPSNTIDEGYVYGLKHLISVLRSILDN

B1: c-fos SRE EMSA probe (dsDNA)
DNA 1: CTAAGCTTGCTGACGCAGATGTCCTAATATGGACATCCTGTCCCGGGGA
DNA 2: TCCCCGGGACAGGATGTCCATATTAGGACATCTGCGTCAGCAAGCTTAG
Consider B1, for which the binding result in data set [1] is on record as “binds”; with SRF (His-SRF), “binds”; in the data set with IPMK it was “no binding”.
